Substitutions are numbered along the chain they refer to.
How the values were obtained:
Experiment in all cases: flow cytometry on cells
[1] = target: T1, full-length Ste2p S104Y (Saccharomyces cerevisiae, UniProt D6VTK4 1-431, S104Y)
T1 sequence (looked up): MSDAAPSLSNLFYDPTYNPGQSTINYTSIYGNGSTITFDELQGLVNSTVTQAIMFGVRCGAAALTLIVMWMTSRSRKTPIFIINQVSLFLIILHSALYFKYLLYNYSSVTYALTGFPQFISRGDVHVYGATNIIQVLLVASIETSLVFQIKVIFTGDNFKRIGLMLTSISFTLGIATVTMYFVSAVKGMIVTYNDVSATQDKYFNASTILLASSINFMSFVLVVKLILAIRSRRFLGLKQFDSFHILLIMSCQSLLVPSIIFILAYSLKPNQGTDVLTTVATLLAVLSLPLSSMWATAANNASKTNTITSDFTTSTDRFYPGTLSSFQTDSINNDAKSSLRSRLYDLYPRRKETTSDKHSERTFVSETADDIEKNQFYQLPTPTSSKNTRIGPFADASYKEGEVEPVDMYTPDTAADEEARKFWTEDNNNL

[2] = target: T2, C-terminally truncated Ste2p S95Y (Saccharomyces cerevisiae, UniProt D6VTK4 1-303, S95Y)
T2 sequence (looked up): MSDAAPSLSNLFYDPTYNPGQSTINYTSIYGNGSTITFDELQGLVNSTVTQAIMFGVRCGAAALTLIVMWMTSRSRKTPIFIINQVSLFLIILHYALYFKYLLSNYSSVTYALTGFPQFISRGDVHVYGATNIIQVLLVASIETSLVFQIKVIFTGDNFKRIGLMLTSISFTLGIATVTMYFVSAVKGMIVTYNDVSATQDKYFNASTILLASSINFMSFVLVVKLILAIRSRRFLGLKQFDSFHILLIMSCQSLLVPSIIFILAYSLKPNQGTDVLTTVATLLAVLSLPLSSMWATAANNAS

[3] = target: T3, full-length Ste2p S95Y (Saccharomyces cerevisiae, UniProt D6VTK4 1-431, S95Y)
T3 sequence (looked up): T1 sequence (looked up) with S95Y, Y104S

[4] = target: T4, full-length wild-type Ste2p (Saccharomyces cerevisiae, UniProt D6VTK4 1-431)
T4 sequence (looked up): T1 sequence (looked up) with Y104S

[5] = target: T5, full-length Ste2p V49D (Saccharomyces cerevisiae, UniProt D6VTK4 1-431, V49D)
T5 sequence (looked up): T1 sequence (looked up) with V49D, Y104S

B1: [K^7(NBD),Nle^12] α-factor (peptide)
chain: WHWLQLKPGQPMY
modifications: NBD (7-nitrobenz-2-oxa-1,3-diazol-4-yl) conjugated to the lysine at position 7; norleucine at position 12 in place of methionine
- Kd [1]: 2 ± 0.7 nM
- Kd [2]: 8.1 ± 7.5 nM
- Kd [3]: 2.1 ± 1.5 nM
- Kd [4]: 7.3 ± 0.9 nM
- Kd [5]: 5.3 ± 2.3 nM

From article PMC4405178 (Biochemistry, 2015)
